Target: T1, ΔN100 y-mtRNAP (yeast mitochondrial RNA polymerase lacking the N-terminal 100 residues) (S. cerevisiae, UniProt P13433 101-1351)
T1 sequence (looked up): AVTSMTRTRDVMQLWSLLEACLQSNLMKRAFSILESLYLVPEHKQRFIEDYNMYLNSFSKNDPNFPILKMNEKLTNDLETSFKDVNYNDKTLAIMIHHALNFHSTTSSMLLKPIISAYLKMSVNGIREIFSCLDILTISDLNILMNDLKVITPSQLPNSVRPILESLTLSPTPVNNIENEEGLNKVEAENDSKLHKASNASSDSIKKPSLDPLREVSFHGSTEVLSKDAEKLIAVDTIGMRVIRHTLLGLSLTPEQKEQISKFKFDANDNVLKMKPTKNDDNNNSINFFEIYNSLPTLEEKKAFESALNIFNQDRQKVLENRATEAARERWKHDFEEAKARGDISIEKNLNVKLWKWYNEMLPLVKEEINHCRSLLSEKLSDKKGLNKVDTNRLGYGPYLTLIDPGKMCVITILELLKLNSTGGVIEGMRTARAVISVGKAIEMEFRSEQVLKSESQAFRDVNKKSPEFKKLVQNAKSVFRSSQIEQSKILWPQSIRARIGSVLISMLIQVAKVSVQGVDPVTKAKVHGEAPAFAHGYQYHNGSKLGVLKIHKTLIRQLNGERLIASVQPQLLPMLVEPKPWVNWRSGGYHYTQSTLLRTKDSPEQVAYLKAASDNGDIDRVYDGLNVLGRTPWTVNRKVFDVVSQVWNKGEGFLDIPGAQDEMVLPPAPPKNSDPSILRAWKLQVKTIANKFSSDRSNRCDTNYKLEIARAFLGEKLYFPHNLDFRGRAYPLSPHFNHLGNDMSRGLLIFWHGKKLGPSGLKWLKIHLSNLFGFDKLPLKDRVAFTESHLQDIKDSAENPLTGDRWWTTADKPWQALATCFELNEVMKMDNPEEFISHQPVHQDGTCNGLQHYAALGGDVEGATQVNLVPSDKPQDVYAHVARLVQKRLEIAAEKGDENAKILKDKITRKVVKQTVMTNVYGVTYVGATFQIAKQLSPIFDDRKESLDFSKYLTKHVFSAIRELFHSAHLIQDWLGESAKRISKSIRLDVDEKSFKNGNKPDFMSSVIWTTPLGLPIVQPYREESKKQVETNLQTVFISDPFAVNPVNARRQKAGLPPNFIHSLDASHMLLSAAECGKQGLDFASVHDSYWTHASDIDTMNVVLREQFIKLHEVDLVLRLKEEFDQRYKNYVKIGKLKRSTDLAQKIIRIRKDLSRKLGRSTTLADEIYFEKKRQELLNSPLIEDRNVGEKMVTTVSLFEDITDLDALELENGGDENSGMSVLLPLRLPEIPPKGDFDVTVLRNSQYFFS
Experiment: cryo-EM structure

B1: His-6 tagged MTF1 from S. cerevisiae (mitochondrial transcription initiation factor MTF1) (natural protein)
chain: SVPIPGIKDISKLKFFYGFKYLWNPTVYNKIFDKLDLTKTYKHPEELKVLDLYPGVGIQSAIFYNKYCPRQYSLLEKRSSLYKFLNAKFEGSPLQILKRDPYDWSTYSNLIDEERIFVPEVQSSDHINDKFLTVANVTGEGSEGLIMQWLSCIGNKNWLYRFGKVKMLLWMPSTTARKLLARPGMHSRSKCSVVREAFTDTKLIAISDANELKGFDSQCIEEWDPILFSAAEIWPTKGKPIALVEMDPIDFDFDVDNWDYVTRHLMILKRTPLNTVMDSLGHGGQQYFNSRITDKDLLKKCPIDLTNDEFIYLTKLFMEWPFKPDILMDFVDMYQTEHSG
binding result: binds

Reference: PMC8044712 (STAR Protocols, 2021)
